Molecular target: fusion protein DBD-AppCt (GAL4 DBD fused to amino acids 650 to 695 of App) (Saccharomyces cerevisiae) (UniProt P04386)
Test: cell-based or functional assay

3-AT concentration at which differences in cell growth are detected: > 15 mM
growth of strain yRB49 (UI) plated on solid medium with 3-AT: 1 mM
B1: fusion protein AD-Fe65 (GAL4 activation domain fused to amino acids 152 to 708 of Fe65) (protein)
chain: MDKAELIPEPPKKKRKVELGTAANFNQSGNIADSSLSFTFTNSSNGPNLITTQTNSQALSQPIASSNVHDNFMNNEITASKIDDGNNSKPLSPGWTDQTAYNAFGITTGMFNTTTMDDVYNYLFDDEDTPPNPKKEIEFKAAGEAEEEEEDDDDEEEEEDLSSPPGLPEPLESVEAPPRPQALTDGPREHSKSASLLFGMRNSAASDEDSSWATLSQGSPSYGSPEDTDSFWNPNAFETDSDLPAGWMRVQDTSGTYYWHIPTGTTQWEPPGRASPSQGSSPQEESQLTWTGFAHGEGFEDGEFWKDEPSDEAPMELGLKEPEEGTLTFPAQSLSPEPLPQEEEKLPPRNTNPGIKCFAVRSLGWVEMTEEELAPGRSSVAVNNCIRQLSYHKNNLHDPMSGGWGEGKDLLLQLEDETLKLVEPQSQALLHAQPIISIRVWGVGRDSGRDFAYVARDKLTQMLKCHVFRCEAPAKNIATSLHEICSKIMAERRNARCLVNGLSLDHSKLVDVPFQVEFPAPKNELVQKFQVYYLGNVPVAKPVGVDVINGALESVLSSSSREQWTPSHVSVAPATLTILHQQTEAVLGECRVRFLSFLAVGRDVHTFAFIMAAGPASFCCHMFWCEPNAASLSEAVQAACMLRYQKCLDARSQASTSCLPAPPAESVARRVGWTVRRGVQSLWGSLKPKRLGAHTP
